Measured values from paper PMC6820788, “Structural insights of human mitofusin-2 into mitochondrial fusion and CMT2A onset” (Nature Communications, 2019).

Tests used:
MFN2IM = molecular target: T1, MFN2IM (Homo sapiens, UniProt O95140, DEL401-705); assay: ITC; assay type: binding
T1 construct: gene MFN2; deletion of residues 1-21 and 401-705 (G domain + HD1); E. coli; N-terminal His6 cut by PreScission
T1 sequence (O95140 22-400): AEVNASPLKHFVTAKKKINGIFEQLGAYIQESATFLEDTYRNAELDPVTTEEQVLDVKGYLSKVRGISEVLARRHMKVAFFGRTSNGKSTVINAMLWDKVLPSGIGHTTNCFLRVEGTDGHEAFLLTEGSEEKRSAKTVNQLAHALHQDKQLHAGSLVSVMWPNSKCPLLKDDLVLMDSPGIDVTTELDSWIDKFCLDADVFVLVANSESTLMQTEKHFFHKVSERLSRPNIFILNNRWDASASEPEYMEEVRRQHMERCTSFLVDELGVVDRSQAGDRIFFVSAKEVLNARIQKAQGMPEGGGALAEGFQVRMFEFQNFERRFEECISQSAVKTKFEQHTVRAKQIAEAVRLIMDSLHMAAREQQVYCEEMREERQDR
T1 sequence (O95140 706-757): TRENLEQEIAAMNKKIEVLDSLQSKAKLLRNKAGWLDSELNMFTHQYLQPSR

MFN1IM = molecular target: T2, MFN1IM (Homo sapiens, UniProt Q8IWA4, DEL365-694); assay: ITC; assay type: binding
T2 construct: gene MFN1; internally truncated (residues 365-694 removed, G domain + HD1); E. coli; His6 cut by PreScission
T2 sequence (Q8IWA4 1-364): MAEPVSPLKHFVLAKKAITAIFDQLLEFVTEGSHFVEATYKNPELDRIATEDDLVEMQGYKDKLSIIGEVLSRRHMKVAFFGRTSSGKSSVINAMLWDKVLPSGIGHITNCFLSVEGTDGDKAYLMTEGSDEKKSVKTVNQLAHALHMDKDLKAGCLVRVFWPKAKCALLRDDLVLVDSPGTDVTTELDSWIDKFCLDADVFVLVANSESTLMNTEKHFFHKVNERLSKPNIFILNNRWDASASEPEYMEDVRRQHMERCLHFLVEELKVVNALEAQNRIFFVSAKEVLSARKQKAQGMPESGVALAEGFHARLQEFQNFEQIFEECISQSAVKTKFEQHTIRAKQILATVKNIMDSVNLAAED
T2 sequence (Q8IWA4 695-741): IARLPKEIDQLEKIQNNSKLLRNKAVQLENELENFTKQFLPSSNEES

[1] = molecular target: the molecule itself; assay: SEC-RALS; analytical gel filtration (Superdex 200 10/300) coupled to right-angle light scattering; 50 μM protein incubated with 500 μM GTP or GDP∙BeF3− for 2 h at room temperature; 20 mM HEPES pH 7.5, 150 mM KCl, 5 mM MgCl2, 1 mM DTT
MBP-fused MFN2IM = molecular target: T3, MBP-fused MFN2IM (human, UniProt O95140 22-757, deletions of residues 1–21 and 401–705); assay: native gel or EMSA; blue native PAGE at 4 °C; MBP-tagged MFN1IM/MFN2IM mixed with 10 μM partner and tenfold GDP∙BeF3−, 2 h at room temperature; Coomassie stain; conditions: both partners purified
T3 construct: human mitofusin-2 (MFN2) with residues 1-21 and 401-705 deleted (MFN2IM); also called MBP-tagged MFN2IM; wild-type MFN2IM (native PAGE)
T3 sequence (looked up): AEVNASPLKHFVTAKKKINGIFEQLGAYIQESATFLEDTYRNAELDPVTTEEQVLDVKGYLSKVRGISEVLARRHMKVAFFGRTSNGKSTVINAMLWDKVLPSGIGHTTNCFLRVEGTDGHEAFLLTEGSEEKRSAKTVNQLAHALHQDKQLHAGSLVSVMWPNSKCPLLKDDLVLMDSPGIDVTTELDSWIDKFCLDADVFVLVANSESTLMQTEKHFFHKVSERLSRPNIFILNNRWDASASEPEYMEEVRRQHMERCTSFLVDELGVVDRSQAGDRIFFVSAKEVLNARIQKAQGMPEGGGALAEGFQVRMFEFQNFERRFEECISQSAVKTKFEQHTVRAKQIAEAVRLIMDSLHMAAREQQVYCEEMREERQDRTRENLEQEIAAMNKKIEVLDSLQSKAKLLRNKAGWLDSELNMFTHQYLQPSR

In the case of `Nc1nc2c(ncn2[C@@H]2O[C@H](COP(=O)(O)OP(=O)(O)O)[C@@H](O)[C@H]2O)c(=O)[nH]1` [GDP], the Kd (MFN2IM) is reported as 14.4 ± 0.63 µM and the Kd (MFN1IM) is reported as 217 ± 23.8 µM.

Molecule `Nc1nc2c(ncn2[C@@H]2O[C@H](COP(=O)(O)OP(=O)(O)OP(O)(O)=S)[C@@H](O)[C@H]2O)c(=O)[nH]1` [GTPγS] has a Kd (MFN2IM) of 3.3 ± 0.52 µM and a Kd (MFN1IM) of 83 ± 5.34 µM.

B1: MFN2IM (modified human MFN2 construct with deletions of residues 1–21 and 401–705) (domain or fragment, UniProt O95140 22-757, looked up)
chain: AEVNASPLKHFVTAKKKINGIFEQLGAYIQESATFLEDTYRNAELDPVTTEEQVLDVKGYLSKVRGISEVLARRHMKVAFFGRTSNGKSTVINAMLWDKVLPSGIGHTTNCFLRVEGTDGHEAFLLTEGSEEKRSAKTVNQLAHALHQDKQLHAGSLVSVMWPNSKCPLLKDDLVLMDSPGIDVTTELDSWIDKFCLDADVFVLVANSESTLMQTEKHFFHKVSERLSRPNIFILNNRWDASASEPEYMEEVRRQHMERCTSFLVDELGVVDRSQAGDRIFFVSAKEVLNARIQKAQGMPEGGGALAEGFQVRMFEFQNFERRFEECISQSAVKTKFEQHTVRAKQIAEAVRLIMDSLHMAAREQQVYCEEMREERQDRTRENLEQEIAAMNKKIEVLDSLQSKAKLLRNKAGWLDSELNMFTHQYLQPSR
notes: human mitofusin-2 (MFN2) with residues 1-21 and 401-705 deleted (MFN2IM); Theoretical molecular mass 52.6 kDa; also called truncated human MFN2; wild-type MFN2IM; source: E. coli Rosetta (DE3), purified (Ni-NTA, His6-tag removed with PreScission protease, second Ni-NTA, gel filtration); not shown: His6, N-terminal, cleaved
B1 was tested, and the “stoichiometry N” value [1] was 2.

B2: MFN2IM L248V (CMT2A-related mutant) (domain or fragment, human, UniProt O95140 22-757, looked up)
chain: AEVNASPLKHFVTAKKKINGIFEQLGAYIQESATFLEDTYRNAELDPVTTEEQVLDVKGYLSKVRGISEVLARRHMKVAFFGRTSNGKSTVINAMLWDKVLPSGIGHTTNCFLRVEGTDGHEAFLLTEGSEEKRSAKTVNQLAHALHQDKQLHAGSLVSVMWPNSKCPLLKDDLVLMDSPGIDVTTELDSWIDKFCLDADVFVLVANSESTLMQTEKHFFHKVSERVSRPNIFILNNRWDASASEPEYMEEVRRQHMERCTSFLVDELGVVDRSQAGDRIFFVSAKEVLNARIQKAQGMPEGGGALAEGFQVRMFEFQNFERRFEECISQSAVKTKFEQHTVRAKQIAEAVRLIMDSLHMAAREQQVYCEEMREERQDRTRENLEQEIAAMNKKIEVLDSLQSKAKLLRNKAGWLDSELNMFTHQYLQPSR
notes: human mitofusin-2 (MFN2) with residues 1-21 and 401-705 deleted (MFN2IM), CMT2A-related point mutant; source: E. coli Rosetta (DE3), purified; not shown: His6, N-terminal, cleaved
B2: binds [1].

B3: MFN2IM P251L (CMT2A-related mutant) (domain or fragment, human, UniProt O95140 22-757, looked up)
chain: AEVNASPLKHFVTAKKKINGIFEQLGAYIQESATFLEDTYRNAELDPVTTEEQVLDVKGYLSKVRGISEVLARRHMKVAFFGRTSNGKSTVINAMLWDKVLPSGIGHTTNCFLRVEGTDGHEAFLLTEGSEEKRSAKTVNQLAHALHQDKQLHAGSLVSVMWPNSKCPLLKDDLVLMDSPGIDVTTELDSWIDKFCLDADVFVLVANSESTLMQTEKHFFHKVSERLSRLNIFILNNRWDASASEPEYMEEVRRQHMERCTSFLVDELGVVDRSQAGDRIFFVSAKEVLNARIQKAQGMPEGGGALAEGFQVRMFEFQNFERRFEECISQSAVKTKFEQHTVRAKQIAEAVRLIMDSLHMAAREQQVYCEEMREERQDRTRENLEQEIAAMNKKIEVLDSLQSKAKLLRNKAGWLDSELNMFTHQYLQPSR
notes: as for B2
B3: binds [1].

B4: MFN2IM R94Q (CMT2A-related mutant) (domain or fragment, human, UniProt O95140 22-757, looked up)
chain: AEVNASPLKHFVTAKKKINGIFEQLGAYIQESATFLEDTYRNAELDPVTTEEQVLDVKGYLSKVRGISEVLAQRHMKVAFFGRTSNGKSTVINAMLWDKVLPSGIGHTTNCFLRVEGTDGHEAFLLTEGSEEKRSAKTVNQLAHALHQDKQLHAGSLVSVMWPNSKCPLLKDDLVLMDSPGIDVTTELDSWIDKFCLDADVFVLVANSESTLMQTEKHFFHKVSERLSRPNIFILNNRWDASASEPEYMEEVRRQHMERCTSFLVDELGVVDRSQAGDRIFFVSAKEVLNARIQKAQGMPEGGGALAEGFQVRMFEFQNFERRFEECISQSAVKTKFEQHTVRAKQIAEAVRLIMDSLHMAAREQQVYCEEMREERQDRTRENLEQEIAAMNKKIEVLDSLQSKAKLLRNKAGWLDSELNMFTHQYLQPSR
notes: as for B2
B4: binds [1].

B5: MFN2IM R364P (CMT2A-related mutant) (domain or fragment, human, UniProt O95140 22-757, looked up)
chain: AEVNASPLKHFVTAKKKINGIFEQLGAYIQESATFLEDTYRNAELDPVTTEEQVLDVKGYLSKVRGISEVLARRHMKVAFFGRTSNGKSTVINAMLWDKVLPSGIGHTTNCFLRVEGTDGHEAFLLTEGSEEKRSAKTVNQLAHALHQDKQLHAGSLVSVMWPNSKCPLLKDDLVLMDSPGIDVTTELDSWIDKFCLDADVFVLVANSESTLMQTEKHFFHKVSERLSRPNIFILNNRWDASASEPEYMEEVRRQHMERCTSFLVDELGVVDRSQAGDRIFFVSAKEVLNARIQKAQGMPEGGGALAEGFQVRMFEFQNFERRFEECISQSAVKTKFEQHTVPAKQIAEAVRLIMDSLHMAAREQQVYCEEMREERQDRTRENLEQEIAAMNKKIEVLDSLQSKAKLLRNKAGWLDSELNMFTHQYLQPSR
notes: as for B2
B5: binds [1].

B6: MFN2IM R364W (CMT2A-related mutant) (domain or fragment, human, UniProt O95140 22-757, looked up)
chain: AEVNASPLKHFVTAKKKINGIFEQLGAYIQESATFLEDTYRNAELDPVTTEEQVLDVKGYLSKVRGISEVLARRHMKVAFFGRTSNGKSTVINAMLWDKVLPSGIGHTTNCFLRVEGTDGHEAFLLTEGSEEKRSAKTVNQLAHALHQDKQLHAGSLVSVMWPNSKCPLLKDDLVLMDSPGIDVTTELDSWIDKFCLDADVFVLVANSESTLMQTEKHFFHKVSERLSRPNIFILNNRWDASASEPEYMEEVRRQHMERCTSFLVDELGVVDRSQAGDRIFFVSAKEVLNARIQKAQGMPEGGGALAEGFQVRMFEFQNFERRFEECISQSAVKTKFEQHTVWAKQIAEAVRLIMDSLHMAAREQQVYCEEMREERQDRTRENLEQEIAAMNKKIEVLDSLQSKAKLLRNKAGWLDSELNMFTHQYLQPSR
notes: as for B2
B6: binds [1].

B7: MFN2IM R94W (CMT2A-related mutant) (domain or fragment, human, UniProt O95140 22-757, looked up)
chain: AEVNASPLKHFVTAKKKINGIFEQLGAYIQESATFLEDTYRNAELDPVTTEEQVLDVKGYLSKVRGISEVLAWRHMKVAFFGRTSNGKSTVINAMLWDKVLPSGIGHTTNCFLRVEGTDGHEAFLLTEGSEEKRSAKTVNQLAHALHQDKQLHAGSLVSVMWPNSKCPLLKDDLVLMDSPGIDVTTELDSWIDKFCLDADVFVLVANSESTLMQTEKHFFHKVSERLSRPNIFILNNRWDASASEPEYMEEVRRQHMERCTSFLVDELGVVDRSQAGDRIFFVSAKEVLNARIQKAQGMPEGGGALAEGFQVRMFEFQNFERRFEECISQSAVKTKFEQHTVRAKQIAEAVRLIMDSLHMAAREQQVYCEEMREERQDRTRENLEQEIAAMNKKIEVLDSLQSKAKLLRNKAGWLDSELNMFTHQYLQPSR
notes: as for B2
B7: binds (MBP-fused MFN2IM).
